{
  "source": "paper PMC6764681",
  "key": {"[1]": {"target": "Man5-enriched stabilized CH505TF.N279K.G458Y.SOSIP.664 Env trimer (made in 293S GnT1- cells) (HIV-1 clade C, strain CH505 transmitted/founder | HIV-1 clade A, strain BG505) (UniProt Q2N0S6)"}, "[2]": {"target": "CH505TF.N279K.G458Y Env on pseudovirus produced in 293T cells (not Man5-enriched) (HIV-1 clade C, strain CH505 transmitted/founder)"}, "[3]": {"target": "Man5-enriched CH505TF.G458Y Env on pseudovirus produced in 293S GnT1- cells (HIV-1 clade C, strain CH505 transmitted/founder)", "details": "scale: fold less susceptible than the Man5-enriched double mutant"}, "[4]": {"target": "Man5-enriched CH505TF.N279K Env on pseudovirus produced in 293S GnT1- cells (HIV-1 clade C, strain CH505 transmitted/founder)", "details": "scale: fold less susceptible than the Man5-enriched double mutant"}, "[5]": {"target": "CH235 UCA2 (unmutated common ancestor of the CH235/CH235.12 lineage), IgG", "experiment": "SPR", "details": "apparent KD, average of two measurements"}, "[6]": {"target": "Man5-enriched stabilized CH505TF.N279K.G458Y.SOSIP.664 Env trimer (made in 293S GnT1- cells) (HIV-1 clade C, strain CH505 transmitted/founder | HIV-1 clade A, strain BG505) (UniProt Q2N0S6)", "experiment": "cryo-EM structure; trimer at 1 mg/ml incubated with 4-5-fold molar excess of CH235 UCA2 Fab for 30-60 minutes, 0.085 mM dodecyl-maltoside; C3 symmetry, 4.2 Å"}, "[7]": {"target": "CH235 UCA2 (unmutated common ancestor of the CH235/CH235.12 lineage), IgG (human)", "sequence (heavy, as listed by the source, chain 1 of 2)": "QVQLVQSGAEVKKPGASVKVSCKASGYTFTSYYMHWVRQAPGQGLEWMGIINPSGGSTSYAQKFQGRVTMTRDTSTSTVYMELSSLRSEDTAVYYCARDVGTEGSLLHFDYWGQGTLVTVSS", "sequence (light, as listed by the source, chain 2 of 2)": "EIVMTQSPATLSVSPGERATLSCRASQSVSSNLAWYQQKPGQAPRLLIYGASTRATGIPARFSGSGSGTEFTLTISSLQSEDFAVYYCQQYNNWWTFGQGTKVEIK", "experiment": "SPR; Biacore 3000; CH235 UCA2 antibody captured (200-350 RU) by goat anti-human IgG Fc immobilised on a CM3 chip; SOSIP trimers 50-750 nM in HBS-EP+ injected 5 min at 50 ul/min, 10 min dissociation; 1:1 Langmuir model with local Rmax; apparent KD, average of two measurements"}, "[8]": {"details": "trimer produced in Freestyle293 (293F) cells, parent: NB"}, "[9]": {"details": "trimer produced in 293S GnT1- cells"}},
  "data": [
    {"substance": "CH235 UCA2 (unmutated common ancestor of the CH235/CH235.12 lineage), IgG (antibody)", "values": [
      {"measurement": "IC50 of neutralization of Man5-enriched (293S GnT1-) CH505TF.N279K.G458Y Env-pseudotyped virus in TZM-bl cells (full-length Env on virus, not the SOSIP)", "setting": "[1]", "result": 0.04, "unit": "µg/mL"},
      {"measurement": "IC50 of neutralization of CH505TF.N279K.G458Y Env-pseudotyped virus that was not Man5-enriched, in TZM-bl cells", "setting": "[2]", "result": 9.2, "unit": "µg/mL"},
      {"measurement": "neutralization in TZM-bl cells: fold less susceptible than the Man5-enriched double mutant", "setting": "[3]", "result": 973},
      {"measurement": "neutralization in TZM-bl cells: fold less susceptible than the Man5-enriched double mutant", "setting": "[4]", "result": 92}
    ]},
    {"substance": "CH505TF SOSIP.664 v4.1 (293F) N279K; G458Y", "values": [
      {"measurement": "Kd", "setting": "[5]; [8]", "result": 83, "unit": "nM"}
    ]},
    {"substance": "CH235 UCA2 Fab", "values": [
      {"measurement": "stoichiometry N (Fabs per Env trimer)", "setting": "[6]", "result": 3}
    ]},
    {"substance": "Man5-enriched stabilized parental CH505TF SOSIP.664 Env trimer (made in 293S GnT1- cells) (from UniProt Q2N0S6) N279K", "values": [
      {"measurement": "Kd", "setting": "[5]; [9]", "result": 28, "unit": "nM"}
    ]},
    {"substance": "Man5-enriched stabilized CH505TF.N279K.G458Y.SOSIP.664 Env trimer (made in 293S GnT1- cells) (from UniProt Q2N0S6 1-860) (complex)", "values": [
      {"measurement": "Kd", "setting": "[7]", "result": 9, "unit": "nM"}
    ]},
    {"substance": "Man5-enriched stabilized parental CH505TF SOSIP.664 Env trimer (made in 293S GnT1- cells) (from UniProt Q2N0S6) G458Y", "values": [
      {"measurement": "Kd", "setting": "[5]; [9]", "result": 996, "unit": "nM"}
    ]},
    {"substance": "CH505TF SOSIP.664 v4.1 (293F) N279K", "values": [
      {"measurement": "Kd", "setting": "[5]; [8]", "result": 154, "unit": "nM"}
    ]}
  ]
}
